In paper PMC10658506, “An engineered interleukin‐11 decoy cytokine inhibits receptor signaling and proliferation in lung adenocarcinoma” (Bioengineering & Translational Medicine, 2023):
Positions count from the first letter of the chain named. Numbers in names are those of the source.

B1: soluble recombinant wild-type human IL-11 (ligand)
chain: SPDPRAELDSTVLLTRSLLADTRQLAAQLRDKFPADGDHNLDSLPTLAMSAGALGALQLPGVLTRLRADLLSYLRHVQWLRRAGGSSLKTLEPELGTLQARLDRLLRRLQLLMSRLALPQPPPDPPAPPLAPPSSAWGGIRAAHAILGGLHLTLDWAVRGLLLLKTRL
notes: interleukin-11 (IL-11), human; also called WT IL-11; IL-11 WT; source: E. coli BL21, purified (cobalt beads), cleaved with TEV protease; not shown: His6, N-terminal, cleaved; thioredoxin, N-terminal, cleaved
B2: enIL-11 (engineered human IL-11, GIPR RA S60T), soluble (designed binder)
chain: B1 chain with D9G, T11I, L14R, L47P, S50T, G52R, W137A
notes: interleukin-11 (IL-11), human; source: E. coli BL21, purified (cobalt beads), cleaved with TEV protease; not shown: His6, N-terminal, cleaved; thioredoxin, N-terminal, cleaved
B3: yeast-displayed wild-type human IL-11 (ligand, UniProt P20809 22-199, looked up)
chain: PGPPPGPPRVSPDPRAELDSTVLLTRSLLADTRQLAAQLRDKFPADGDHNLDSLPTLAMSAGALGALQLPGVLTRLRADLLSYLRHVQWLRRAGGSSLKTLEPELGTLQARLDRLLRRLQLLMSRLALPQPPPDPPAPPLAPPSSAWGGIRAAHAILGGLHLTLDWAVRGLLLLKTRL
notes: interleukin-11 (IL-11), human, residues Pro22 to Leu199 of the precursor; also called IL-11 WT; WT IL-11; not shown: c-myc, C-terminal, kept
B4: yeast-displayed mouse IL-11 wild-type (ligand, UniProt P47873 22-199, looked up)
chain: PGPPAGSPRVSSDPRADLDSAVLLTRSLLADTRQLAAQMRDKFPADGDHSLDSLPTLAMSAGTLGSLQLPGVLTRLRVDLMSYLRHVQWLRRAGGPSLKTLEPELGALQARLERLLRRLQLLMSRLALPQAAPDQPVIPLGPPASAWGSIRAAHAILGGLHLTLDWAVRGLLLLKTRL
notes: interleukin-11, mouse; also called mIL-11; mIL-11 WT; not shown: c-myc, C-terminal, kept

What was measured:
[1] = target: T1, biotinylated IL-11R-Fc (human, UniProt Q14626 24-370, biotin); experiment: BLI; biotinylated IL-11R-Fc loaded on streptavidin biosensors at 1.25 ug/mL in kinetics buffer; three-fold serial dilutions of WT IL-11 or enIL-11; apparent Kd; binding to enIL-11 performed by Antibody Solutions; settings: both partners purified
T1 construct: interleukin-11 receptor (IL-11R), human, Fc fusion; source: bought: Acro, ILR-H82F5
T1 sequence (looked up): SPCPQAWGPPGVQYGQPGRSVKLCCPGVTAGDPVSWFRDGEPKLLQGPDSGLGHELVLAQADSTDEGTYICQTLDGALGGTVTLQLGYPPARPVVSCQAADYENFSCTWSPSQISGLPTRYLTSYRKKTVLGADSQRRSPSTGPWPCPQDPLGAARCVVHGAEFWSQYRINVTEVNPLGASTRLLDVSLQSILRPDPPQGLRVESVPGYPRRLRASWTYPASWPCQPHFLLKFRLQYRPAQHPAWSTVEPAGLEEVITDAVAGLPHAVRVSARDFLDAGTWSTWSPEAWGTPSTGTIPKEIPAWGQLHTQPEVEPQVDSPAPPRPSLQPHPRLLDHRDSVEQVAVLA

[2] = target: T2, mIL-11R-mFc (mouse, UniProt Q64385 24-372); experiment: BLI; mIL-11R-mFc loaded on antimouse Fc biosensors at 1.25 ug/mL in kinetics buffer; three-fold serial dilutions of WT IL-11 or enIL-11; apparent Kd; binding to enIL-11 performed by Antibody Solutions; settings: both partners purified
T2 construct: interleukin-11 receptor, mouse (mIL-11R), mouse Fc fusion; also called mouse IL-11R; source: bought: R&D Systems, 7405-MR
T2 sequence (looked up): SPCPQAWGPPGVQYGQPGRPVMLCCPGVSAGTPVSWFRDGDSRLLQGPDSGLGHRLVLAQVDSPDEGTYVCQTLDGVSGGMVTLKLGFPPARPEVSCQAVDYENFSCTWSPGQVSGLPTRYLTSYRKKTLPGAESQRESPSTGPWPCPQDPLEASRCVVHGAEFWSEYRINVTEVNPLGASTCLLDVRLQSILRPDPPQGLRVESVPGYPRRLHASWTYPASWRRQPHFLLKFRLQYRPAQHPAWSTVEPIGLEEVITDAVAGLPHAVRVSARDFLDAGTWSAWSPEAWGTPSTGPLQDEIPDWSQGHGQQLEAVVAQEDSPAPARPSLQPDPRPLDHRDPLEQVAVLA

[3] = target: T3, soluble mouse IL-11 receptor (mouse, UniProt Q64385 24-372); experiment: flow cytometry on cells; yeast-displayed IL-11 variants incubated with varying concentrations of soluble IL-11R or mIL-11R overnight at room temperature, washed with BPBS; receptor detected with anti-his AF647, display with anti-c-myc; apparent Kd from the fraction bound of the expressing population; settings: one partner purified
T3 construct: interleukin-11 receptor, mouse (mIL-11R), soluble; also called mIL-11R; source: bought: Sino Biological, 50,075-M08H-100
T3 sequence (looked up): T2 sequence (looked up)

| Kd [1] [nM] | Kd [2] [nM] | Kd [3] [nM] | Binder |
| --- | --- | --- | --- |
| 9.5 ± 0.3 | 11 ± 0.3 |  | B1 |
| 0.41 ± 0.01 | 0.16 ± 0.01 |  | B2 |
|  |  | 2.2 ± 0.3 | B3 |
|  |  | 3.1 ± 0.8 | B4 |
